Reference: publication PMC2829074
One block for each molecule: values may come before it. Ends that are not written are not given here.

Experiments:
Cyr61/CCN1 = Cyr61/CCN1 (UniProt O00622); test: ELISA; competitive ELISA: wells coated with multimeric VTNC (25 ng/well); Cyr61 (30 nM) co-incubated for 90 minutes with increasing concentrations of soluble VTNC forms, SMTB 1–44 or ixolaris; VTNC-bound Cyr61 detected with anti-Cyr61 antibody
[1] = molecular target: denatured multimeric human vitronectin (VTNC) (human)
[2] = molecular target: somatomedin B domain (SMTB 1–44) of vitronectin (human); test: ELISA; competition: SMTB 1–44 (1.25 µg/well) immobilized; Cyr61 (30 nM) mixed with stable mutant PAI-1 (0, 50, 500 nM) or ixolaris (500 nM) in PBS-T, added for 90 minutes; bound Cyr61 detected with anti-Cyr61 antibody
[3] = molecular target: somatomedin B domain (SMTB 1–44) of vitronectin (human); test: SPR; kinetics, Biacore T100: monomeric (667.4 RU) or multimeric (625.2 RU) VTNC or SMTB 1–44 (337.2 RU) immobilized on CM5 by amine coupling; analyte injected 90 s at 30 µl/minute, 25°C, HBS-P (10 mM Hepes pH 7.4, 150 mM NaCl, 0.005% P20); Cyr61 fitted by the global two-state (conformational change) model, PAI-1 by the Langmuir 1:1 model
[4] = molecular target: denatured multimeric human vitronectin (VTNC) (human); test: ELISA; solid-phase binding assay as a3 on multimeric VTNC, in TBS 0.4% Tween supplemented with 0.5% gelatin; apparent KD
[5] = molecular target: denatured multimeric human vitronectin (VTNC) (human); test: ELISA; solid-phase binding assay: VTNC (25 ng/well) or SMTB 1–44 (2.5 µg/well) immobilized on plates, Cyr61 0–1 µM in PBS-0.4% Tween 20 for 90 minutes, detected with anti-Cyr61 monoclonal antibody; apparent KD by Langmuir isotherm
[6] = molecular target: native monomeric human vitronectin (VTNC) (human); test: as above
[7] = molecular target: somatomedin B domain (SMTB 1–44) of vitronectin (human); test: as above
[8] = molecular target: denatured multimeric human vitronectin (VTNC) (human); test: SPR; kinetics, Biacore T100: monomeric (667.4 RU) or multimeric (625.2 RU) VTNC or SMTB 1–44 (337.2 RU) immobilized on CM5 by amine coupling; analyte injected 90 s at 30 µl/minute, 25°C, HBS-P (10 mM Hepes pH 7.4, 150 mM NaCl, 0.005% P20); Cyr61 fitted by the global two-state (conformational change) model, PAI-1 by the Langmuir 1:1 model
[9] = molecular target: native monomeric human vitronectin (VTNC) (human); test: as above
[10] = molecular target: PAI-1 (recombinant stable mutant form) (UniProt P05121); test: ITC; VP-ITC, 30°C, 5 µL injections of 10 µM SMTB 1–44 into 1 µM PAI-1 or Cyr61 in the cell; 20 mM Tris-HCl, 0.15 M NaCl, pH 7.4; single-site model

Molecule: PAI-1 (recombinant stable mutant form) (from UniProt P05121 24-402) (natural protein)
inhibition of adhesion of uPAR-bearing PMA-differentiated U937 cells to VTNC-coated wells pre-incubated with stable mutant PAI-1 (1.5 µM); pair blocked: uPAR with VTNC [1]: > 90% | percent inhibition of Cyr61 binding to SMTB 1–44 at 500 nM PAI-1 [2]: > 80% | Kd [3]: 0.0433 nM | koff [3]: 0.0001 s⁻¹ | kon [3]: 2.31e+06 M⁻¹ s⁻¹

B1: Cyr61/CCN1 (natural protein)
chain: TCPAACHCPLEAPKCAPGVGLVRDGCGCCKVCAKQLNEDCSKTQPCDHTKGLECNFGASSTALKGICRAQSEGRPCEYNSRIYQNGESFQPNCKHQCTCIDGAVGCIPLCPQELSLPNLGCPNPRLVKVTGQCCEEWVCDEDSIKDPMEDQDGLLGKELGFDASEVELTRNNELIAVGKGSSLKRLPVFGMEPRILYNPLQGQKCIVQTTSWSQCSKTCGTGISTRVTNDNPECRLVKETRICEVRPCGQPVYSSLKKGKKCSKTKKSPEPVRFTYAGCLSVKKYRPKYCGSCVDGRCCTPQLTRTVKMRFRCEDGETFSKNVMMIQSCKCNYNCPHANEAAFPFYRLFNDIHKFRD
inhibition of adhesion of uPAR-bearing PMA-differentiated U937 cells to VTNC-coated wells pre-incubated with Cyr61 (1.5 µM); pair blocked: uPAR with VTNC [1]: 40% | Kd [4]: 36.5 nM | Kd [5]: 22.6 nM | Kd [6]: 26.5 nM | Kd [7]: 27.2 nM | Kd [8]: 27.6 nM | ka1 (two-state model, step 1) [8]: 104000 M⁻¹ s⁻¹ | ka2 (two-state model, step 2) [8]: 0.00255 s⁻¹ | kd1 (two-state model, step 1) [8]: 0.0695 s⁻¹ | kd2 (two-state model, step 2) [8]: 0.00011 s⁻¹ | Kd [9]: 5.66 nM | ka1 (two-state model, step 1) [9]: 568000 M⁻¹ s⁻¹ | ka2 (two-state model, step 2) [9]: 0.00783 s⁻¹ | kd1 (two-state model, step 1) [9]: 0.0245 s⁻¹ | kd2 (two-state model, step 2) [9]: 0.00118 s⁻¹ | Kd [3]: 10.1 nM | ka1 (two-state model, step 1) [3]: 127000 M⁻¹ s⁻¹ | ka2 (two-state model, step 2) [3]: 0.0109 s⁻¹ | kd1 (two-state model, step 1) [3]: 0.025 s⁻¹ | kd2 (two-state model, step 2) [3]: 0.000592 s⁻¹

Other lines, results leading:

percent inhibition of Cyr61 binding to immobilized VTNC at 15 µg/ml (Cyr61/CCN1): > 50%
Molecule: denatured multimeric human vitronectin (VTNC) (natural protein)

Kd [10]: < 1 nM | dH [10]: -24 kcal/mol | stoichiometry N [10]: 0.77
B2: somatomedin B domain (SMTB 1–44) of vitronectin (peptide)
peptide: DQESCKGRCTEGFNVDKKCQCDELCSYYQSCCTDYTAECKPQVT
modifications: disulfide (positions not given here); also: eight oxidized cysteines, pairing not given here
